Measurements taken from patent publication US20210380679A1 (INHIBRX BIOSCIENCES, published 2021).

T1: human DLL3 (Delta-like ligand 3) (human, UniProt Q9NYJ7 27-618)
T1 construct: endogenous on SHP-77 cells; also called cell-surface DLL3
T1 sequence: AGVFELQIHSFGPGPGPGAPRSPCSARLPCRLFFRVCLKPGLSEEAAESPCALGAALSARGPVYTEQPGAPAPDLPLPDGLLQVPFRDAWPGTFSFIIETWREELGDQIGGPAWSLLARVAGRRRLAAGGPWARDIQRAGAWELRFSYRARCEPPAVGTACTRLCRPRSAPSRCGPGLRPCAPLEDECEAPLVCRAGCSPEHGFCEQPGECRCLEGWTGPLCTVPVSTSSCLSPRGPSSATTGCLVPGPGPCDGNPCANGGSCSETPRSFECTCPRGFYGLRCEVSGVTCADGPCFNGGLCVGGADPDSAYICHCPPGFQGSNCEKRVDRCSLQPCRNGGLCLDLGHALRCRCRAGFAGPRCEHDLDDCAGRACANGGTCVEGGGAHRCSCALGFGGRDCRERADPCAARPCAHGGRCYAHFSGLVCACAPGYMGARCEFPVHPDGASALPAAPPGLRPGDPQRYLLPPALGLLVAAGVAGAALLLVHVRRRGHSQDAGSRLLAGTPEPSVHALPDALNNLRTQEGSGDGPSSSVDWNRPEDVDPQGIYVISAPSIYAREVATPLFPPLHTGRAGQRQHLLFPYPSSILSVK


target: T1, human DLL3 (Delta-like ligand 3); assay: flow cytometry, sdAb-Fc titrated on SHP-77 cells (DLL3 positive), APC anti-human Fc secondary
Procedure: FIGS. 2A-L set forth a series of graphs depicting the ability of sdAb and humanized variants thereof targeting DLL3 to bind cell surface DLL3.
Specificity and relative affinity were assessed for purified sdAb-Fcs on DLL3-expressing cells. […] A titration series of the fusion protein was incubated with the DLL3-expressing cell lines (approximately 2.5×10⁴ to 5×10⁴ cells/well) for 30 minutes at 4 degrees Celsius in FACS Buffer (PBS 1% BSA, 0.1% NaN₃ pH 7.4) in 96-well plates. Following three wash steps in FACS buffer, an APC-conjugated anti-human Fcγ specific secondary antibody (Jackson ImmunoResearch) was added and incubated for 30 minutes at 4 degrees Celsius. Following three additional wash steps in FACS buffer bound antibody was detected via flow cytometry (IQue Intellicyte).

Row | binding result | EC50 (read off the curve) [pM] | Binder
1 | binds |  | hz5A7v1 (Fc fusion, tested as VHH-human Fc; Fc not specified) VHH: EVQLVESGGGEVQPGGSLRLSCAASGSDFSINAIGWYRQAPGKQRDMVAGFTGDGVTTYAESVKGRFTISRDNAKNTVYLQMSSLRAEDTAVYYCAADVKIGGDYEWFWGQGTLVTVKP
2 | binds |  | hz5A7v3 (Fc fusion, tested as VHH-human Fc; Fc not specified) VHH: EVQLVESGGGEVQPGGSLRLSCAASGSDFSINAIGWYRQAPGKQRDMVAGFTGEGVTTYAESVKGRFTISRDNAKNTVYLQMSSLRAEDTAVYYCAADVKIGGDYEWFWGQGTLVTVKP
3 | binds |  | L5A7 (Fc fusion, tested as VHH-human Fc; Fc not specified) VHH: EVQLVQSGGGLVQPGGSLRLSCAASGSDFSINAIGWYRQAPGKQRDMVAGFTGDGVTTYADSVKGRFTISRDNAKNTVYLQMNSLKPEDTAVYYCAADVKIGGDYEWFWGQGTQVTVKP
4 | binds |  | hz5A7v2 (Fc fusion, tested as VHH-human Fc; Fc not specified) VHH: EVQLVESGGGEVQPGGSLRLSCAASGSDFSINAIGWYRQAPGKQRDMVAGFTGDTVTTYAESVKGRFTISRDNAKNTVYLQMSSLRAEDTAVYYCAADVKIGGDYEWFWGQGTLVTVKP
5 | binds |  | hz10D9v7 (Fc fusion, tested as VHH-human Fc; Fc not specified) VHH: EVQLVESGGGEVQPGGSLRLSCAASGSIFSINAMGWYRQAPGKQRELVAGFTGDTNTIYAESVKGRFTISRDNAKNTVYLQMSSLRAEDTAVYYCAADVQLFSRDYEFYWGQGTLVTVKP
6 | binds |  | hz3C5v5 (Fc fusion, tested as VHH-human Fc; Fc not specified) VHH: EVQLVESGGGEVQPGGSLRLSCAASGSIFSINAMGWYRQAPGKQRELVAGFTGDGSTKYAESVKGRFTISRDNAKNTVYLQMSSLRAEDTAVYYCAADVQLLSSDYEFYWGQGTLVTVKP
7 |  | ~700 | hz3C5v2 (Fc fusion, tested as VHH-human Fc; Fc not specified) VHH: EVQLVESGGGEVQPGGSLRLSCAASGSIFSINAMGWYRQPPGKQRELVAGFTGDGSTKYAESVKGRFTISRDNAKNTVYLQMSSLRAEDTAVYYCAADVQLLNSDYEFYWGQGTLVTVKP
8 | binds |  | hz3G3v1 (Fc fusion, tested as VHH-human Fc; Fc not specified) VHH: EVQLVESGGGEVQPGGSLRLSCAASGSIFSINAMGWYRQAPGKQRELVAGFTGDGMTKYAESVKGRFTISRDNAKNTVYLQMSSLRAEDTAVYYCAADVFTDRDHVDWYWGQGTLVTVKP
9 | binds |  | hz10D9v2 (Fc fusion, tested as VHH-human Fc; Fc not specified) VHH: EVQLVESGGGEVQPGGSLRLSCAASGSILSINAMGWYRQAPGKQRELVAGFTGDGNTIYAESVKGRFTISRDNAKNTVYLQMSSLRAEDTAVYYCAADVQLFSRDYEFYWGQGTLVTVKP
10 | binds |  | hz3C5v3 (Fc fusion, tested as VHH-human Fc; Fc not specified) VHH: EVQLVESGGGEVQPGGSLRLSCAASGSIFSINAMGWYRQAPGKQRELVAGFTGDTSTKYAESVKGRFTISRDNAKNTVYLQMSSLRAEDTAVYYCAADVQLLNSDYEFYWGQGTLVTVKP
11 | binds |  | hz3C5v4 (Fc fusion, tested as VHH-human Fc; Fc not specified) VHH: EVQLVESGGGEVQPGGSLRLSCAASGSIFSINAMGWYRQAPGKQRELVAGFTGEGSTKYAESVKGRFTISRDNAKNTVYLQMSSLRAEDTAVYYCAADVQLLNSDYEFYWGQGTLVTVKP
12 | binds |  | hz10D9v1 (Fc fusion, tested as VHH-human Fc; Fc not specified) VHH: EVQLVESGGGEVQPGGSLRLSCAASGSILSINAMGWYRQAPGKQREMVAGFTGDGNTIYAESVKGRFTISRDNAKNTVYLQMSSLRAEDTAVYYCAADVQLFSRDYEFYWGQGTLVTVKP
13 | binds |  | hz3C5v6 (Fc fusion, tested as VHH-human Fc; Fc not specified) VHH: EVQLVESGGGEVQPGGSLRLSCAASGSIFSINAMGWYRQAPGKQRELVAGFTGDGSTKYAESVKGRFTISRDNAKNTVYLQMSSLRAEDTAVYYCAADVQLLTSDYEFYWGQGTLVTVKP
14 | binds |  | hz3C5v7 (Fc fusion, tested as VHH-human Fc; Fc not specified) VHH: EVQLVESGGGEVQPGGSLRLSCAASGSIFSINAMGWYRQAPGKQRELVAGFTGDGSTKYAESVKGRFTISRDNAKNTVYLQMSSLRAEDTAVYYCAADVQLLQSDYEFYWGQGTLVTVKP
15 | binds |  | hz3C5v8 (Fc fusion, tested as VHH-human Fc; Fc not specified) VHH: EVQLVESGGGEVQPGGSLRLSCAASGSIFSINAMGWYRQAPGKQRELVAGFTGDGSTKYAESVKGRFTISRDNAKNTVYLQMSSLRAEDTAVYYCAADVQLLNTDYEFYWGQGTLVTVKP
16 | binds |  | hz10D9v4 (Fc fusion, tested as VHH-human Fc; Fc not specified) VHH: EVQLVESGGGEVQPGGSLRLSCAASGSILSINAMGWYRQAPGKQREMVAGFTGDTNTIYAESVKGRFTISRDNAKNTVYLQMSSLRAEDTAVYYCAADVQLFSRDYEFYWGQGTLVTVKP
17 | binds |  | hz3C5v1 (Fc fusion, tested as VHH-human Fc; Fc not specified) VHH: EVQLVESGGGEVQPGGSLRLSCAASGSIFSINAMGWYRQAPGKQRELVAGFTGDGSTKYAESVKGRFTISRDNAKNTVYLQMSSLRAEDTAVYYCAADVQLLNSDYEFYWGQGTLVTVKP
18 | binds |  | hz10D9v5 (Fc fusion, tested as VHH-human Fc; Fc not specified) VHH: EVQLVESGGGEVQPGGSLRLSCAASGSILSINAMGWYRQAPGKQRELVAGFTGDTNTIYAESVKGRFTISRDNAKNTVYLQMSSLRAEDTAVYYCAADVQLFSRDYEFYWGQGTLVTVKP
19 | binds |  | hz10D9v6 (Fc fusion, tested as VHH-human Fc; Fc not specified) VHH: EVQLVESGGGEVQPGGSLRLSCAASGSILSINAMGWYRQPPGKQRELVAGFTGDTNTIYAESVKGRFTISRDNAKNTVYLQMSSLRAEDTAVYYCAADVQLFSRDYEFYWGQGTLVTVKP
20 | binds |  | hz10D9v3 (Fc fusion, tested as VHH-human Fc; Fc not specified) VHH: EVQLVESGGGEVQPGGSLRLSCAASGSILSINAMGWYRQAPGKQREMVAGFTGEGNTIYAESVKGRFTISRDNAKNTVYLQMSSLRAEDTAVYYCAADVQLFSRDYEFYWGQGTLVTVKP
21 | binds |  | L3G3 (Fc fusion, tested as VHH-human Fc; Fc not specified) VHH: QVQLVQSGGGLVQAGGSLRLSCAASGSIFSINAMGWYREAPGKQRELVAGFTGDGMTKYAESVKGRFTFSRDNAKNTVYLQMNSLKPEDTGVYYCAADVFTDRDHVDWYWGQGTQVTVKP
22 | binds |  | hz3G3v2 (Fc fusion, tested as VHH-human Fc; Fc not specified) VHH: EVQLVESGGGEVQPGGSLRLSCAASGSIFSINAMGWYREAPGKQRELVAGFTGDGMTKYAESVKGRFTISRDNAKNTVYLQMSSLRAEDTAVYYCAADVFTDRDHVDWYWGQGTLVTVKP
23 | binds |  | hz3G3v4 (Fc fusion, tested as VHH-human Fc; Fc not specified) VHH: EVQLVESGGGEVQPGGSLRLSCAASGSIFSINAMGWYRQAPGKQRELVAGFTGDGMTKYAESVKGRFTISRDNAKNTVYLQMSSLRAEDTGVYYCAADVFTDRDHVDWYWGQGTLVTVKP
24 | binds |  | hz3G3v3 (Fc fusion, tested as VHH-human Fc; Fc not specified) VHH: EVQLVESGGGEVQPGGSLRLSCAASGSIFSINAMGWYRQAPGKQRELVAGFTGDGMTKYAESVKGRFTFSRDNAKNTVYLQMSSLRAEDTAVYYCAADVFTDRDHVDWYWGQGTLVTVKP
